Target: soluble αVβ3 headpiece (human) (UniProt P06756)
Test: fluorescence polarisation

“nonapeptide containing RGD from pro-TGF-β3” was tested, and the fold-lower affinity than for αVβ6 was 1000 fold.
